Test results from patent US9938510B2, “Photobacterium sp. alpha-2-6-sialyltransferase variants” (The Regents of the University of California, priority 2014, dated 2018).
Where a chain is given by its changes, count along the chain named. In names and notes the source's numbering stands.

B1: Psp26ST(15-501)-His6: recombinant Photobacterium sp. JH-ISH-224 α2-6-sialyltransferase, residues 15-501, C-terminal His6, wild-type; SEQ ID NO: 23 (protein)
chain: CNNSEENTQSIIKNDINKTIIDEEYVNLEPINQSNISFTKHSWVQTCGTQQLLTEQNKESISLSVVAPRLDDDEKYCFDFNGVSNKGEKYITKVTLNVVAPSLEVYVDHASLPTLQQLMDIIKSEEENPTAQRYIAWGRIVPTDEQMKELNITSFALINNHTPADLVQEIVKQAQTKHRLNVKLSSNTAHSFDNLVPILKELNSFNNVTVTNIDLYDDGSAEYVNLYNWRDTLNKTDNLKIGKDYLEDVINGINEDTSNTGTSSVYNWQKLYPANYHFLRKDYLTLEPSLHELRDYIGDSLKQMQWDGFKKFNSKQQELFLSIVNFDKQKLQNEYNSSNLPNFVFTGTTVWAGNHEREYYAKQQINVINNAINESSPHYLGNSYDLFFKGHPGGGIINTLIMQNYPSMVDIPSKISFEVLMMTDMLPDAVAGIASSLYFTIPAEKIKFIVFTSTETITDRETALRSPLVQVMIKLGIVKEENVLFWA
modifications: C-terminal His6; Synthetic Psp26ST(15-501) WILD TYPE
B2: A366G: Photobacterium sp. JH-ISH-224 α2-6-sialyltransferase residues 15-501, A366G point mutation, C-terminal His6; SEQ ID NO: 2 (protein)
chain: B1 chain with A352G
modifications: C-terminal His6; Synthetic Psp26ST(15-501) A366G

Columns and labels:
Assay type in all cases: biochemical
[1] = Kinetics of CMP-Neu5Ac donor hydrolysis activity (capillary electrophoresis)
Description: Procedure for Kinetic Analysis of Donor Hydrolysis by His6-Pd2,6ST(16-497), Psp26ST(15-501)-His6 and its A235D and A366G Mutants
The kinetics study for the donor hydrolysis activity of His6-Pd2,6ST(16-497) was carried out at 37° C. for 20 min in Tris-HCl buffer (200 mM, pH 8.0). The kinetics study for the donor hydrolysis activities of Psp26ST(15-501)-His6 and its A235D mutant was carried out at 20° C. for 10 min in Tris-HCl buffer (200 mM, pH 8.0). All reactions were performed in duplicate in a total volume of 10 μL containing varied concentrations of CMP-Neu5Ac (10, 20, 40, 60, 80 and 100 mM) and the enzyme (6 μM). Reactions were stopped by adding 10 μL of ethanol and then centrifuged. The supernatants were analyzed by a P/ACETM capillary electrophoresis (CE) system equipped with a photodiode array (PDA) detector (Beckman Coulter, Inc., Fullerton, Calif.). CE conditions were as follows: 75 μm i.d. capillary, 25 KV/80μÅ, 5 s vacuum injections, monitored at 200 nm and 254 nm, the running buffer used was sodium tetraborate (25 mM, pH 9.4). Apparent kinetic parameters were obtained by fitting the experimental data (the average values of duplicate assay results) into the Michaelis-Menten equation using Grafit 5.0.

[2] = Sialylation assay with periodic addition of CMP-Neu5Ac
Description: Two reactions were set up at 20° C. in MES buffer (200 mM, pH 5.0) containing Psp2,6ST(15-501)-His6 (6.0 μM), CMP-Neu5Ac (1 mM), and GalNAcα2AA (1 mM) in a total volume of 50 μL. One of the reactions was used as a control and was incubated for 4 h. The other was incubated for 1 h, 2 equivalents of CMP-Neu5Ac was then added. The same dose was added every hour for up to 4 h reaction duration. Aliquots (2 μL each) were withdrawn and the reactions were stopped by adding 10 μL of cold ethanol followed by centrifugation. The samples were diluted and kept on ice until aliquots of 8 μL were injected and analyzed by a Shimadzu LC-6AD system equipped with a membrane on-line degasser, a temperature control unit, and a fluorescence detector (Shimadzu RF-10AXL). A reverse-phase Premier C18 column (250×4.6 mm i.e., 5 μm particle size, Shimadzu) protected with a C18 guard column cartridge was used. The mobile phase was 25% acetonitrile in water. The 2-aminobenzoic acid (2AA)-labeled fluorescent acceptor and the product formed were detected with excitation at 315 nm and emission at 400 nm.

[3] = Apparent sialyltransferase kinetics, GalNAcα2AA as acceptor
Description: (§1) Reactions were carried out in duplicate at 20° C. for 20 minutes in a total volume of 10 μL in a proper buffer at the optimal pH according to the pH profile of the wild-type enzyme (see, Ding, 2011, supra). When LacβMU was used as an acceptor, the conditions were: Tris-HCl buffer (200 mM, pH 8.0), enzyme (0.3 μM), varied concentrations of LacβMU (0.1, 0.25, 0.4, 1.0, 2.0, 4.0, and 6.0 mM) with a fixed concentration of CMP-Neu5Ac (1.0 mM) or varied concentrations of CMP-Neu5Ac (0.1, 0.25, 0.4, 1.0, 2.0, 4.0, and 6.0 mM) with a fixed concentration of LacβMU (1.0 mM). When GalNAcα2AA was used as an acceptor, the conditions were: NaOAc-HOAc buffer (200 mM, pH 5.0), enzyme (6 μM), varied concentrations of GalNAcα2AA (0.5, 0.8, 1.0, 2.0, 4.0, 8.0, and 10.0 mM) and a fixed concentration of CMP-Neu5Ac (4.0 mM) or varied concentrations of CMP-Neu5Ac (0.5, 1.0, 2.0, 4.0, 5.0, 8.0, and 10.0 mM) with a fixed concentration of GalNAcα2AA (1.0 mM). When GalNAcαSer was used as an acceptor, the conditions were: Tris-HCl buffer (200 mM, pH 8.0), enzyme (0.6 μM), varied concentrations of GalNAcαSer (0.1, 0.25, 0.5, 1.0, 2.0, 4.0, 8.0, and 10.0 mM) and a fixed concentration of CMP-Neu5Ac (2.0 mM). […]

[4] = Apparent sialyltransferase kinetics, GalNAcαSer as acceptor
Description: as §1

[5] = Apparent sialyltransferase kinetics, GalNAcαThr as acceptor
Description: as §1

[6] = Sialyltransferase activity assays, statements not tied to one acceptor (LacβMU, GalNAcα2AA, GalNAcαSer, GalNAcαThr); conditions: α-linked N-acetyl galactosaminides, especially GalNAcα2AA or GalNAcαThr, as acceptor
Description: When LacβMU was used as an acceptor, the assay was performed in duplicate in 10 μL of Tris-HCl buffer (100 mM, pH 8.0) containing CMP-Neu5Ac (1 mM), LacβMU (1 mM), MgCl2 (20 mM), wild-type Psp2,6ST(15-501)-His6 or its mutant (0.3 μM). When an α-GalNAc-terminated acceptor was used, the assay was performed in duplicate in 10 μL of Tris-HCl buffer (100 mM, pH 8.0 for GalNAcαSer/Thr) or NaOAc-HOAc (100 mM, pH 5.0 for GalNAcα2AA) containing CMP-Neu5Ac (1.5 mM), the acceptor (1 mM), MgCl2 (20 mM), wild-type Psp2,6ST(15-501)-His6 or its mutant (3.0 μM). Reactions were allowed to proceed at 20° C. for 20 min and stopped by adding 10 μL of cold ethanol. The analysis of sialylated product conversion was performed using the HPLC system as described above for sialyltransferase activity assay. The 4-methylumbelliferone (MU)-labeled fluorescent acceptor and the product formed were detected with excitation at 325 nm and emission at 372 nm. The 2-aminobenzoic acid (2AA)-labeled fluorescent acceptors and the products formed were detected with excitation at 315 nm and emission at 400 nm. The 9-fluorenylmethylcarbamate (Fmoc)-labeled fluorescent acceptors and the products formed were detected with excitation at 262 nm and emission at 313 nm.

| Molecule | CMP-Neu5Ac hydrolysis efficiency relative to sialyltransferase activity (more efficient) ([1]; versus kcat/Km with GalNAcα2AA as acceptor) | CMP-Neu5Ac hydrolysis efficiency relative to sialyltransferase activity (lower) ([1]; versus kcat/Km with LacβMU as acceptor) | sialylation yield ([2]; after an additional two equivalents of CMP-Neu5Ac, in 15 min) | sialylation yield ([2]; after the fourth dose (2 equivalents) of CMP-Neu5Ac) | sialylation yield ([2]; after the third dose (2 equivalents) of CMP-Neu5Ac) | sialylated product Neu5Acα2-6GalNAcα2AA formed ([2]; one equivalent of CMP-Neu5Ac, MES pH 5.0, 20° C., enzyme 6.0 μM, GalNAcα2AA 1 mM) | catalytic efficiency (kcat/Km) higher than the wild-type enzyme [3] | catalytic efficiency (kcat/Km) higher than the wild-type enzyme [4] | catalytic efficiency (kcat/Km) higher than the wild-type enzyme [5] | sialyltransferase activity compared to wild-type [6] |
| --- | --- | --- | --- | --- | --- | --- | --- | --- | --- | --- |
| B1 | about 14 fold | 13 fold | 17% | 33% | 25% | 7.3% |  |  |  |  |
| B2 |  |  |  |  |  |  | 1.3 fold | 1.2 fold | 2.1 fold | improved sialyltransferase activity |
